Results from the supplement of paper PMC9112550, “Optimization of the antimicrobial peptide Bac7 by deep mutational scanning” (BMC Biology, 2022).

System: Escherichia coli TOP10
Assay: shrunken log2 fold change of peptide-encoding DNA abundance (4.5 h post-induction vs induction); higher = less antimicrobial activity (less host growth inhibition)
Details: time post-induction: 4.5 h; library: site-saturation at positions 5, 18, 19, 20
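Also: peptides expressed intracellularly from a pBAD plasmid library in pooled LB shake-flask culture, induced with 0.3% L-arabinose, DNA abundance read by NGS, three biological replicates, DESeq2 with apeglm shrinkage.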

Sequence	shrunken log2 fold change
RRIRARPPRLPRPRPRPSQIPRP	0.0409
RRIRYRPPRLPRPRPRPLIVPRP	-0.895
RRIRRRPPRLPRPRPRPEVNPRP	-0.0845
RRIRFRPPRLPRPRPRPSLSPRP	-0.623
RRIRYRPPRLPRPRPRPCVPPRP	-0.0398
RRIRMRPPRLPRPRPRPMAPPRP	0.218
RRIRMRPPRLPRPRPRPDSVPRP	-0.045
RRIRHRPPRLPRPRPRPQEYPRP	-0.128
RRIRARPPRLPRPRPRPVTPPRP	0.479
RRIRYRPPRLPRPRPRPHRFPRP	0.0207
RRIRKRPPRLPRPRPRPLCQPRP	0.206
RRIRARPPRLPRPRPRPEKEPRP	0.248
RRIRWRPPRLPRPRPRPSHPPRP	-0.0699
RRIRGRPPRLPRPRPRPTDGPRP	0.361
RRIRHRPPRLPRPRPRPFMYPRP	-0.249
RRIRERPPRLPRPRPRPNQGPRP	-0.348
RRIRWRPPRLPRPRPRPWLKPRP	0.0275
RRIRMRPPRLPRPRPRPNAQPRP	0.43
RRIRTRPPRLPRPRPRPAGKPRP	0.196
RRIRCRPPRLPRPRPRPRMIPRP	0.306
RRIRNRPPRLPRPRPRPQQHPRP	-0.111
RRIRSRPPRLPRPRPRPLVQPRP	-0.0825

Sequence	shrunken log2 fold change
RRIRARPPRLPRPRPRPSHWPRP	-0.175
RRIRQRPPRLPRPRPRPNACPRP	-0.000684
RRIRHRPPRLPRPRPRPSAHPRP	-0.139
RRIRIRPPRLPRPRPRPQPFPRP	-0.264
RRIRNRPPRLPRPRPRPMWWPRP	-0.0071
RRIRYRPPRLPRPRPRPHMFPRP	0.0171
RRIRDRPPRLPRPRPRPNFLPRP	-0.277
RRIRNRPPRLPRPRPRPNKEPRP	-0.0761
RRIRYRPPRLPRPRPRPRDYPRP	-1.39
RRIRNRPPRLPRPRPRPLSSPRP	-0.0989
RRIRWRPPRLPRPRPRPTIDPRP	-0.0862
RRIRPRPPRLPRPRPRPSWNPRP	-0.158
RRIRFRPPRLPRPRPRPQGVPRP	0.103
RRIRNRPPRLPRPRPRPPEPPRP	0.184
RRIRPRPPRLPRPRPRPSDLPRP	-0.385
RRIRYRPPRLPRPRPRPPNCPRP	-0.236
RRIRWRPPRLPRPRPRPQHQPRP	-0.142
RRIRMRPPRLPRPRPRPDAAPRP	3.98
RRIRPRPPRLPRPRPRPMGCPRP	-0.0927
RRIRRRPPRLPRPRPRPQIAPRP	0.31
RRIRDRPPRLPRPRPRPKCTPRP	0.0239
RRIRNRPPRLPRPRPRPSACPRP	-0.0258

Sequence	shrunken log2 fold change
RRIRHRPPRLPRPRPRPLGAPRP	-0.0242
RRIRQRPPRLPRPRPRPRTNPRP	0.158
RRIRKRPPRLPRPRPRPDPIPRP	0.129
RRIRFRPPRLPRPRPRPYCLPRP	-0.341
RRIRKRPPRLPRPRPRPKKWPRP	0.406
RRIRSRPPRLPRPRPRPGNDPRP	0.111
RRIRDRPPRLPRPRPRPLRVPRP	0.679
RRIRDRPPRLPRPRPRPASKPRP	-0.0758
RRIRNRPPRLPRPRPRPVMIPRP	-0.311
RRIRTRPPRLPRPRPRPNLVPRP	-0.149
RRIRQRPPRLPRPRPRPGDRPRP	0.132
RRIRGRPPRLPRPRPRPDLEPRP	0.288
RRIRCRPPRLPRPRPRPARNPRP	-0.182
RRIRFRPPRLPRPRPRPEWHPRP	-0.28
RRIRIRPPRLPRPRPRPWISPRP	-0.0286
RRIRHRPPRLPRPRPRPQFWPRP	0.115
RRIRMRPPRLPRPRPRPICHPRP	0.0206
RRIRVRPPRLPRPRPRPPTHPRP	0.117
RRIRTRPPRLPRPRPRPCVGPRP	-0.013
RRIRQRPPRLPRPRPRPWIFPRP	-0.0561
RRIRARPPRLPRPRPRPFSIPRP	0.111
RRIRYRPPRLPRPRPRPSCDPRP	-0.74

Sequence	shrunken log2 fold change
RRIRCRPPRLPRPRPRPALHPRP	0.179
RRIRNRPPRLPRPRPRPRCYPRP	-0.0588
RRIRLRPPRLPRPRPRPAQNPRP	0.57
RRIRDRPPRLPRPRPRPSKFPRP	-0.105
RRIRGRPPRLPRPRPRPLQRPRP	0.762
RRIRKRPPRLPRPRPRPRADPRP	0.511
RRIRYRPPRLPRPRPRPFAPPRP	-0.386
RRIRTRPPRLPRPRPRPEKIPRP	0.0436
RRIRYRPPRLPRPRPRPHHAPRP	-0.00186
RRIRWRPPRLPRPRPRPRASPRP	0.852
RRIRHRPPRLPRPRPRPYLLPRP	-0.611
RRIRNRPPRLPRPRPRPVFSPRP	-0.192
RRIRPRPPRLPRPRPRPYAIPRP	-0.219
RRIRMRPPRLPRPRPRPLRAPRP	2.97
RRIRIRPPRLPRPRPRPKMHPRP	-0.299
RRIRDRPPRLPRPRPRPNNCPRP	-0.466
RRIRHRPPRLPRPRPRPRGWPRP	0.629
RRIRFRPPRLPRPRPRPASMPRP	-0.146
RRIRCRPPRLPRPRPRPLHPPRP	0.199
RRIRDRPPRLPRPRPRPSCMPRP	0.0312
RRIRGRPPRLPRPRPRPTTMPRP	0.451
RRIRARPPRLPRPRPRPSMPPRP	-0.176

Sequence	shrunken log2 fold change
RRIRSRPPRLPRPRPRPNEHPRP	-0.655
RRIRERPPRLPRPRPRPGHTPRP	-0.0164
RRIRPRPPRLPRPRPRPVNDPRP	-0.106
RRIRMRPPRLPRPRPRPPQVPRP	0.995
RRIRARPPRLPRPRPRPKHAPRP	0.757
RRIRDRPPRLPRPRPRPKFYPRP	0.0101
RRIRQRPPRLPRPRPRPHYCPRP	-0.0397
RRIRQRPPRLPRPRPRPLGNPRP	-0.263
RRIRCRPPRLPRPRPRPKGCPRP	0.00419
RRIRVRPPRLPRPRPRPPFDPRP	0.199
RRIRFRPPRLPRPRPRPPIRPRP	-0.0123
RRIRDRPPRLPRPRPRPQCAPRP	0.0622
RRIRERPPRLPRPRPRPQHEPRP	0.199
RRIRRRPPRLPRPRPRPCTSPRP	0.0211
RRIRARPPRLPRPRPRPDPHPRP	0.373
RRIRVRPPRLPRPRPRPFGYPRP	-0.425
RRIRKRPPRLPRPRPRPGDWPRP	0.485
RRIRNRPPRLPRPRPRPDWNPRP	-0.212
RRIRWRPPRLPRPRPRPTMSPRP	-0.065
RRIRQRPPRLPRPRPRPITLPRP	-0.418
RRIRMRPPRLPRPRPRPPIFPRP	0.00125
